Test results: article PMC5509211

Target: actin filaments (skeletal muscle) (Gallus gallus), P68139
Conditions: modification not given

Kd: 9.3 µM
Binder: MGVADLIKKFESISKEE [mEGFP-Lifeact]
